Tests used:
[1] = molecular target: T1, renal rat membrane dipeptidase (DPEP-1) (Rattus norvegicus, UniProt P31430); assay: Peptide binding to Cos-7 cells transfected with rat DPEP-1, immunofluorescence microscopy; details: rat DPEP-1 transfected Cos-7 cells; fluorescently conjugated peptide on ice 30 minutes
T1 construct: expressed in transfected cells; host or cells: Cos-7
Description: Cos-7 cells were transiently transfected with […] of renal rat membrane dipeptidase (DPEP-1) plasmid using lipofectamine 2000 (Invitrogen) reagent. 48 hours after transfection, media was removed and cells were washed with PBS. Cells were incubated with LSALT conjugated with Alexa-488 (Green), GFE-1 peptide conjugated with Alexa-568 (Red) or control peptide conjugated with Alexa-488 (Green) on ice for 30 minutes. Cells were washed and fixed using 4% paraformaldehyde and immunofluorescence microscopy was performed to assess binding. Shown are representative photomicrographs of each experimental condition (n=2).

[2] = molecular target: T2, Human DPEP2 (Homo sapiens, UniProt Q9H4A9); assay: Binding of Alexa-488 conjugated peptide to Cos-1 cells transfected with human DPEP2
T2 construct: expressed in transfected cells; host or cells: Cos-1
T2 sequence (Q9H4A9 33-463): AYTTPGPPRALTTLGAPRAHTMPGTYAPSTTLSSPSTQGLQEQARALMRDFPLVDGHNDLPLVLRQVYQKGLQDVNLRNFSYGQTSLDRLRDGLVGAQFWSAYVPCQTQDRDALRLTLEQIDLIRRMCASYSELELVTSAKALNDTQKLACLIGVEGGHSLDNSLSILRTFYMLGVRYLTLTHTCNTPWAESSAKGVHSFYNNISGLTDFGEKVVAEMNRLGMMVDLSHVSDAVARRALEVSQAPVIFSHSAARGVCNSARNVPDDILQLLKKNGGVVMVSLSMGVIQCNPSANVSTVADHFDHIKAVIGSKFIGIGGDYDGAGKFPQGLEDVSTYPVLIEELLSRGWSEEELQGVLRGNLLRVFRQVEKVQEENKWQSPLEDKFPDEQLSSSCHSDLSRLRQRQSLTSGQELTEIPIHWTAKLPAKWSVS
Description: (§1) Cos-1 cells were transiently transfected with either […] of human DPEP-1, DPEP2, or DPEP3 gene using lipofectamine 2000 (Invitrogen) reagent in OptiMEM medium. 24 hours after transfection, DPEP-1, DPEP2, or DPEP3 expressing cells were re-seeded on collagen coated (neutralized) wells in 24 well plates and allowed to grow for 24 hours at 37º° C. 24 hours after seeding, media was removed and cells were washed with PBS. Cells were blocked with FBS/NBSA/Tween in PBS for 30 minutes on ice. Cells were then washed with PBS and incubated with LSALT or GFE-1, conjugated with Alexa-488 (green). After incubation, cells were washed with PBS and stained with DAPI for 5 minutes on ice. Cells were then washed with PBS and fixed using 4% paraformaldehyde and immunofluorescence microscopy was performed to assess binding. Representative photomicrographs are shown for each experimental condition (n=3) in FIG. 6A. Proteins from DPEP-1. DPEP2 and DPEP3 transfected cells were isolated after 48 hours using octyl-glucoside/RIPA lysis buffer and western blot analysis was performed to assess DPEP-1, DPEP2 and DPEP3 protein expression using specific antibodies; DPEP-1 antibody (Sigma), DPEP2 (Abcam) and DPEP3 (Santacruz). Blots were stripped and reprobed with an anti-P-actin.

[3] = system: neutrophil adhesion in the hepatic sinusoids; assay: Neutrophil adhesion in hepatic sinusoids after LPS, intravital microscopy; assay type: in vivo, LysMeGFP mice; details: for neutrophil adhesion in the hepatic sinusoids in the presence of LPS: 1 mM peptide intravenous 5 minutes after 0.5 mg/kg LPS intraperitoneal, liver imaged after 3 hours
Description: Six to ten week old LysMeGFP mice were injected with 1 mM dose of LSALT or GFE-1 peptides (intravenous) 5 minutes after the injection of 0.5 mg/kg of lipopolysaccharide (intraperitoneal). After 3 hours, animals were injected with ketamine and xylazine to provide general anesthesia. Fluorescently conjugated F4/80 and PECAM-1 antibodies were then administered via jugular vein cannulation and intravital spinning disk confocal microscopy was performed. The livers were imaged for an hour and the number of neutrophils were counted at different time points. Neutrophils which were stationary for >30 seconds in the liver sinusoids were counted as adherent cells. Data are representative of three independent experiments. An unpaired 2-tailed student's t-test was performed comparing LSALT, GFE-1 or control treated group against the LPS treated group (*p<0.05).

[4] = system: DPEP-1; details: cited from earlier work
[5] = molecular target: T3, Human DPEP-3 (Homo sapiens, UniProt Q9H4B8); assay: Binding of Alexa-488 conjugated peptide to Cos-1 cells transfected with human DPEP3
T3 construct: expressed in transfected cells; host or cells: Cos-1
T3 sequence (Q9H4B8 36-463): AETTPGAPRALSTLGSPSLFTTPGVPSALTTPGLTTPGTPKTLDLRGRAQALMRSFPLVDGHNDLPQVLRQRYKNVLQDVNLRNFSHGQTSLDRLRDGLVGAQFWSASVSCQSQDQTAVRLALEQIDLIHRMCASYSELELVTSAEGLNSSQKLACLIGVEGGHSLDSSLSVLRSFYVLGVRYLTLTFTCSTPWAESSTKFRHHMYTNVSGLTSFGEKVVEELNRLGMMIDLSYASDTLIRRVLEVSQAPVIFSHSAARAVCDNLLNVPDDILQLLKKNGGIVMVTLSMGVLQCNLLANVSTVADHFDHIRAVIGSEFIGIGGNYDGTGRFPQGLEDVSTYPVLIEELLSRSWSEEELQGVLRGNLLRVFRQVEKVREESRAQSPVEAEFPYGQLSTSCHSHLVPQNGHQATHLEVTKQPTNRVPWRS
Description: as §1

[6] = system: B16-F10 murine melanoma cells; assay: B16-F10 melanoma lung metastasis, syngeneic model; assay type: in vivo, C57-BL6 mice; details: 1 mM peptide intravenous 5 minutes before 100,000 B16-F10 cells; lungs harvested after 2 weeks
Description: 8-10 weeks old C57-BL6 mice (Charles River) were injected intravenously with 100,000 B16-F10 murine melanoma cells 5 minutes after the injection of either LSALT or GFE-1 peptide (1 mM) via intravenous tail injection. Animals were sacrificed after 2 weeks and lungs were harvested. Tissues were processed for histology as described before and bematoxylin-eosin staining was performed to assess tumor burden.

[7] = system: serum cytokines in response to LPS; assay: Plasma cytokine levels after LPS, Luminex Cytokine Arrays; assay type: in vivo, SCID mice; details: LPS 0.5 mg/kg intraperitoneal 5 minutes prior to intravenous peptide; plasma at 4 hours
Description: 6-8 weeks old SCID mice were given an intraperitoneal injection of LPS (0.5 mg/kg) 5 minutes prior to intravenous injection of LSALT peptide or a control peptide. 4 hours following injection of LPS, blood was collected by cardiac puncture and changes in plasma cytokine levels were assessed using Luminex Cytokine Arrays. Bar graphs show the levels of different inflammatory mediators released in the plasma in the presence or absence of LSALT peptide and control peptide.
6-8 weeks old SCID mice were given an intraperitoneal injection of LPS (0.5 mg/kg) 5 minutes prior to intravenous injection of LSALT peptide or a control peptide. 4 hours following injection of LPS, blood was collected by cardiac puncture and changes in plasma cytokine levels were assessed using Luminex Cytokine Arrays. Bar graphs show the level of the anti-inflammatory cytokine IL-10 released in the plasma in LSALT peptide or control peptide in two independent experiments.

[8] = molecular target: T4, human DPEP-1 (Homo sapiens, UniProt P16444); assay: Binding of Alexa-488 conjugated peptide to Cos-1 cells transfected with human DPEP-1 (immunofluorescence, biotin transfer); details: Cos-1 cells transiently transfected with human DPEP-1 cDNA, 30 minutes on ice
T4 construct: expressed in transfected cells; host or cells: Cos-1
T4 sequence (P16444 17-385): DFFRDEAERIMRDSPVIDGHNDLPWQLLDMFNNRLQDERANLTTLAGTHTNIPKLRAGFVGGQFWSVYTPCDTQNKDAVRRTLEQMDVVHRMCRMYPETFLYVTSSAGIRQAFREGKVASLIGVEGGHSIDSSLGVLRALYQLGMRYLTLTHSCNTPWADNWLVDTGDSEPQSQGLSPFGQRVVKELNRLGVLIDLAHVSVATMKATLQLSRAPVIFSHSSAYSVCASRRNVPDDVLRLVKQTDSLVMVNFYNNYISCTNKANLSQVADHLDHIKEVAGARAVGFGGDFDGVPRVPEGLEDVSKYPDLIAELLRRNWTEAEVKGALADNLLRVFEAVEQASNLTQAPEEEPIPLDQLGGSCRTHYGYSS
Description: (§2) Cos-1 cells were transiently transfected with either 3 or 5|ig of membrane dipeptidase (DPEP-1) cDNA corresponding to the rat (Shown in FIG. 5A) or human DPEP-1 (Shown in FIG. 5B) gene using lipofectamine 2000 (Invitrogen) reagent in OptiMEM medium 24 hours after transfection, DPEP-1 expressing cells were re-seeded on collagen coated (neutralized) wells in 24 well plates and allowed to grow for 24 hours at 37 °C. 24 hours after seeding, media was removed and cells were washed with PBS. Cells were blocked with FBS/NBSA/Tween in PBS for 30 minutes on ice. Cells were then washed with PBS and incubated with Alexa-488 (green) conjugated LSALT, GFE-1, control peptide or DPEP-1 antibody (1/100) (Sigma) on ice for 30 minutes. […] After incubation, cells were washed with PBS and treated with 10 mg/ml biotin transfer peptide (LSALT, GFE-1 or Control Peptide (KGAL)] for 10 minutes. Cells were then washed with PBS and biotin transfer was enabled by UV activation of the aryl azide groups for 15 minutes at 363 nm. Residual fluid was removed and monolayers were lysed either with octyl-glucoside/RIPA or 8M urea. Isolated supernatants were rotated with […] of neutr-avidin agarose beads at 4° C. for 24 hours. Beads were washed with corresponding buffers, boiled in Laemmli buffer and analyzed by western blot using a DPEP-1 specific antibody (Proteintech).

[9] = molecular target: T1, renal rat membrane dipeptidase (DPEP-1); assay: Peptide binding to Cos-7 cells transfected with rat DPEP-1, flow cytometry; details: rat DPEP-1 transfected Cos-7 cells; Alexa-488 conjugated peptide on ice 30 minutes
Description: Cos-7 cells were transiently transfected with 5∧g of renal rat membrane dipeptidase (DPEP-1) plasmid using lipofectamine2000 (Invitrogen) reagent. 48 hours after transfection, cells were incubated with LSALT conjugated to Alexa-488 (green) on ice for 30 minutes. Cells were washed and flow cytometry was performed to assess binding Shown are single parameter histographs for each experimental condition (n=2).

[10] = molecular target: T5, rat DPEP-1 (Rattus norvegicus, UniProt P31430); assay: Binding of Alexa-488 conjugated peptide to Cos-1 cells transfected with rat DPEP-1 (immunofluorescence); details: Cos-1 cells transiently transfected with rat DPEP-1 cDNA, 30 minutes on ice
T5 construct: expressed in transfected cells; host or cells: Cos-1
T5 sequence (P31430 17-384): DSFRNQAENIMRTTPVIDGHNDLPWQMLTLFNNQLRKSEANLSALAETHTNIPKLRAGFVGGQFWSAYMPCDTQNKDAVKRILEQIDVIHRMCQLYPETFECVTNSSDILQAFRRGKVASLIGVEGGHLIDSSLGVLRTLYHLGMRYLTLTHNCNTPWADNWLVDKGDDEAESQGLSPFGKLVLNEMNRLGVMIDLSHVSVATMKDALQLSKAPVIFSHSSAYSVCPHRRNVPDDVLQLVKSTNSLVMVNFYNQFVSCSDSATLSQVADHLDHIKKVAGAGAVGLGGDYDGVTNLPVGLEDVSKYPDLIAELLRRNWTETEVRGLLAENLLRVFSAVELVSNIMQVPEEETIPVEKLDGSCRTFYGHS
Description: as §2

[11] = molecular target: T6, human membrane dipeptidase (DPEP-1) (Homo sapiens, UniProt P16444); assay: Membrane dipeptidase enzyme activity assay, fluorimetric detection of D-Phe from Gly-D-Phe; assay type: biochemical; details: protein from human DPEP-1 transfected Cos-1 cells; Gly-D-Phe substrate, 37° C., 3 hours
T6 construct: expressed in transfected cells; host or cells: Cos-1 (protein lysate, octylglucoside)
T6 sequence (P16444 17-385): T4 sequence (P16444 17-385)
Description: Cos-1 cells were transiently transfected with […] of human membrane dipeptidase (DPEP-1) plasmid using lipofectamine 2000 (Invitrogen) reagent. 48 hours after transfection, media was removed and cells were washed with PBS. Proteins were isolated using octylglucoside in the absence of protease inhibitors. Membrane dipeptidase assay and the fluorimetric detection of D-Phe was performed exactly as described by Heywood and Hooper previously. In brief, proteins were first incubated with membrane dipeptidase substrate Gly-D-Phe either in the presence or absence of LSALT or GFE-1 peptide at 37° C. for 3 hours. The fluorescence signal generated from the conversion of D-Phe to […] in the presence of D-aminoacidoxidase and peroxidase was measured using a fluorescence plate reader.

[12] = system: tumor cell line; assay: Tumor burden in livers or lungs of animals injected with a tumor cell line; assay type: in vivo

T1 sequence (P31430 17-384): as above

binding to human DPEP-1 [8] | binding to Cos-7 cells with expression of DPEP-1 (flow cytometry) [9] | binding to rat DPEP-1 [10] | inhibition of membrane dipeptidase enzyme activity [11] | Sequence | binding to Cos-7 cells with expression of DPEP-1 (immunofluorescence microscopy) [1] | binding to human DPEP2 in vitro [2] | neutrophil adhesion in the hepatic sinusoids in the presence of LPS [3] | DPEP-1 binding activity in lung microvasculature [4] | binding to human DPEP-3 in vitro [5] | melanoma-lung metastasis [6] | neutrophil recruitment to the liver ([3]; mouse model of sepsis) | levels of serum cytokines (inflammatory mediators) in response to LPS [7] | production of the anti-inflammatory mediator IL-10 in response to LPS [7] | tumor burden in the livers or lungs [12]
 |  |  |  | CGFECVRQCPERC (listed as Homo sapiens) [GFE-1, reference compound] | enhanced the binding | do not Bind | inhibit neutrophil adhesion | having DPEP-1 binding activity | do not Bind |  |  |  |  | 
 |  |  |  | CGFELETC (listed as Homo sapiens) [GFE-2] |  |  |  | having DPEP-1 binding activity |  |  |  |  |  | 
Bonds | enhanced the binding | Bonds | does not inhibit | LSALTPSPSWLKYKAL (listed as Homo sapiens) | enhanced the binding | do not Bind | inhibit neutrophil adhesion |  | do not Bind | Inhibits | reduced neutrophil recruitment | attenuates the levels | increases the production | dramatically reduce tumor burden

Reference: patent US12569538B2, “DPEP-1 binding compositions and methods of use” (Arch Biopartners, Inc., priority 2015, dated 2026)
